Values quoted from earlier work as cited in paper PMC6323488.

Target: EGFR (Homo sapiens) (UniProt P00533)

- Kd: 126 nM
Substance: CTGF (from UniProt P29279)
